From paper doi:10.1101/2023.02.24.529952 (bioRxiv, 2023) come the findings set out here.

Sequences and labels used below:
B1: CXCL11 (ligand)
chain: FPMFKRGRCLCIGPGVKAVKVADIEKASIMYPSNNCDKIEVIITLKENKGQRCLNPKSKQARLIIKKVERKNF
notes: recombinant human CXCL11; source: bought: PeproTech
B2: IL-27 (complex)
chain 1: FPRPPGRPQLSLQELRREFTVSLHLARKLLSEVRGQAHRFAESHLPGVNLYLLPLGEQLPDVSLTFQAWRRLSDPERLCFISTTLQPFHALLGGLGTQGRWTNMERMQLWAMRLDLRDLQRHLRFQVLAAGFNLPEEEEEEEEEEEEERKGLLPGALGSALQGPAQVSWPQLLSTYRLLHSLELVLSRAVRELLLLSKAGHSVWPLGFPTLSPQP
chain 2: RKGPPAALTLPRVQCRASRYPIAVDCSWTLPPAPNSTSPVSFIATYRLGMAARGHSWPCLQQTPTSTSCTITDVQLFSMAPYVLNVTAVHPWGSSSSFVPFITEHIIKPDPPEGVRLSPLAERQLQVQWEPPGSWPFPEIFSLKYWIRYKRQGAARFHRVGPIEATSFILRAVRPRARYYVQVAAQDLTDYGELSDWSLPATATMSLGK
notes: source: bought: PeproTech
B3: CXCL13 (ligand)
chain: VLEVYYTSLRCRCVQESSVFIPRRFIDRIQILPRGNGCPRKEIIVWKKNKSIVCVDPQAEWIQRMMEVLRKRSSSTLPVPVFKRKIP
notes: recombinant human CXCL13; source: bought: PeproTech
B4: CCL28 (ligand)
chain: SEAILPIASSCCTEVSHHISRRLLERVNMCRIQRADGDCDLAAVILHVKRRRICVSPHNHTVKQWMKVQAAKKNGKGNVCHRKKHHGKRNSNRAHQGKHETYGHKTPY
notes: recombinant human CCL28; source: bought: PeproTech
B5: CXCL9 (ligand)
chain: TPVVRKGRCSCISTNQGTIHLQSLKDLKQFAPSPSCEKIEIIATLKNGVQTCLNPDSADVKELIKKWEKQVSQKKKQKNGKKHQKKKVLKVRKSQRSRQKKTT
notes: recombinant human CXCL9; source: bought: PeproTech
B6: CCL21 (ligand)
chain: SDGGAQDCCLKYSQRKIPAKVVRSYRKQEPSLGCSIPAILFLPRKRSQAELCADPKELWVQQLMQHLDKTPSPQKPAQGCRKDRGASKTGKKGKGSKGCKRTERSQTPKGP
notes: recombinant human CCL21; source: bought: PeproTech
B7: CXCL14 (ligand)
chain: SKCKCSRKGPKIRYSDVKKLEMKPKYPHCEEKMVIITTKSVSRYRGQEHCLHPKLQSTKRFIKWYNAWNEKRRVYEE
notes: recombinant human CXCL14; source: bought: PeproTech
B8: CCL26 (ligand)
chain: TRGSDISKTCCFQYSHKPLPWTWVRSYEFTSNSCSQRAVIFTTKRGKKVCTHPRKKWVQKYISLLKTPKQL
notes: recombinant human CCL26; source: bought: PeproTech
B9: CCL5 (ligand)
chain: SPYSSDTTPCCFAYIARPLPRAHIKEYFYTSGKCSNPAVVFVTRKNRQVCANPEKKWVREYINSLEMS
notes: recombinant human CCL5; source: bought: PeproTech
B10: CCL11 (ligand)
chain: not shown
notes: recombinant human CCL11; source: bought: PeproTech
B11: CCL25 (ligand)
chain: QGVFEDCCLAYHYPIGWAVLRRAWTYRIQEVSGSCNLPAAIFYLPKRHRKVCGNPKSREVQRAMKLLDARNKVFAKLHHNTQTFQAGPHAVKKLSSGNSKLSSSKFSNPISSSKRNVSLLISANSGL
notes: recombinant human CCL25; source: bought: PeproTech
B12: CCL13 (ligand)
chain: not shown
notes: recombinant human CCL13; source: bought: PeproTech
B13: HCoV-OC43 Nucleocapsid (N) protein (2X-StrepTag tagged) (natural protein)
chain: MSFTPGKQSSSRASSGNRSGNGILKWADQSDQVRNVQTRGRRAQPKQTATSQQPSGGNVVPYYSWFSGITQFQKGKEFEFVEGQGPPIAPGVPATEAKGYWYRHNRGSFKTADGNQRQLLPRWYFYYLGTGPHAKDQYGTDIDGVYWVASNQADVNTPADIVDRDPSSDEAIPTRFPPGTVLPQGYYIEGSGRSAPNSRSTSRTSSRASSAGSRSRANSGNRTPTSGVTPDMADQIASLVLAKLGKDATKPQQVTKHTAKEVRQKILNKPRQKRSPNKQCTVQQCFGKRGPNQNFGGGEMLKLGTSDPQFPILAELAPTAGAFFFGSRLELAKVQNLSGNPDEPQKDVYELRYNGAIRFDSTLSGFETIMKVLNENLNAYQQQDGMMNMSPKPQRQRGHKNGQGENDNISVAVPKSRVQQNKSRELTAEDISLLKKMDEPYTEDTSEI
notes: also called rN; HCoV-OC43 rN; source: HEK293-FT, transfected, in crude lysate; not shown: 2X-StrepTag, C-terminal, kept

In assay [1] the target is B13. The experiment in a line: BLI. Particulars: one partner purified.
For assay [2], the target named is T1, CXCL12α (human, UniProt P48061-2 22-89).
T1 construct: source: bought: PeproTech
T1 sequence (P48061 22-89): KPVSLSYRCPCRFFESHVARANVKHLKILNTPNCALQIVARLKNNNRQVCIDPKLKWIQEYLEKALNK
The assay can be described thus: BLI. The settings on record: one partner purified.

In general, Kd refers to the free concentration of one partner at which half of the binding sites on the other are occupied at equilibrium, for simple one-to-one binding. Higher therefore signals a looser complex. Broadly, the koff is the first-order rate constant of dissociation. Usually kon stands for a measure of how fast the partners come together. In assay [1], B1 yielded a Kd of 730 nM, a koff of 0.012 s⁻¹ and a kon of 18000 M⁻¹ s⁻¹.

In assay [1], B2 showed a Kd of 55 nM, a koff of 0.0024 s⁻¹ and a kon of 51000 M⁻¹ s⁻¹.

With B3, in assay [1], binding was characterised by a dissociation constant (Kd) of 140 nM, the koff worked out at 0.0046 s⁻¹ and the kon was found to be 44000 M⁻¹ s⁻¹.

B4: in assay [1], the Kd is 27 nM, the koff came out at 0.0015 s⁻¹ and the kon amounted to 60000 M⁻¹ s⁻¹.

For B5, in assay [1], binding was put at a Kd of 29 nM, the koff turned out to be 0.0022 s⁻¹ and the kon is 82000 M⁻¹ s⁻¹.

As for B6, in assay [1], binding was characterised by a dissociation constant (Kd) of 290 nM, the koff is 0.012 s⁻¹ and the kon was found to be 67000 M⁻¹ s⁻¹.

On to B7, for which, in assay [1], the Kd worked out at 580 nM, the koff amounted to 0.0063 s⁻¹ and the kon worked out at 12000 M⁻¹ s⁻¹.

In assay [1], B8 had a Kd of 620 nM, a koff of 0.014 s⁻¹ and a kon of 20000 M⁻¹ s⁻¹.

With B9, in assay [1], binding was put at a Kd of 56000 nM, the dissociation rate constant (koff) is 0.015 s⁻¹ and the kon turned out to be 2100 M⁻¹ s⁻¹.

In the case of B10, in assay [1], the dissociation constant Kd stood at 1400 nM, the koff was 0.021 s⁻¹ and the kon was found to be 17000 M⁻¹ s⁻¹.

Consider B11, for which, in assay [1], binding was put at a Kd of 610 nM, the koff amounted to 0.0048 s⁻¹ and the kon turned out to be 8300 M⁻¹ s⁻¹.

In assay [1], B12 yielded a Kd of 1600 nM, a koff of 0.025 s⁻¹ and a kon of 19000 M⁻¹ s⁻¹.

Regarding B13, in assay [2], the Kd came out at 0.46 nM, the koff was 3.7e-05 s⁻¹ and the kon amounted to 62000 M⁻¹ s⁻¹.
